Data: patent publication US20140369964A1 (GLYTECH, published 2014)
One block for each binder: values may come before it.

Target: T1, IFN-α/β receptor 2 (UniProt P48551 27-243, limits assumed)
T1 sequence (looked up): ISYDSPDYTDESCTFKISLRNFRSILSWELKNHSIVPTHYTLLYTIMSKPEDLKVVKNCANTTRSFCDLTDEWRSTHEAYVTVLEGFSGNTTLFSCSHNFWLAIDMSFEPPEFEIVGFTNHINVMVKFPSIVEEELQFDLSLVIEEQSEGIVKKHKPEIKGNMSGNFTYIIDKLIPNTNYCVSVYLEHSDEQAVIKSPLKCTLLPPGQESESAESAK
Test: SPR (ProteOn XPR36), receptor amine-coupled to GLM chip, IFN-β as analyte at 0.31-25 nM
Experimental: The binding affinity of the non-heated or heat-treated chemically synthesized IFN-β against IFN-α/β receptor 2 was measured with ProteOn XPR36 (Bio-rad) employing SPR (Surface Plasmon Resonance technology).
Specifically, 10 μg/mL of IFN-α/β receptor 2 (10 mM acetic acid buffer, pH 4.5) was fixed to a GLM chip (Bio-rad) according to instructions by employing an amine coupling kit (Bio-rad) and flowing 0.005% Tween 20/PBS at a flow rate of 30 μL/min. The non-heated disialo sugar chain attached polypeptide (10) prepared in Example 3, or the heat-treated disialo sugar chain attached polypeptide obtained by subjecting the disialo sugar chain attached polypeptide heat-treated in the above 9-1. to the de-Acm step, the benzyl group deprotection step, and the folding step described in the above 3-4.-3-6. were adjusted to 0.31-25 nM with 0.1% BSA and 2 mM EDTA/PBS, and added to the chip at a flow rate 50 of μL/min. The analysis with glycosylated polypeptide (10) was carried out at each of five concentrations of 0.31 nM, 0.93 nM, 2.8 nM, 8.3 nM, and 25 nM. The binding constant (ka), the dissociation constant (kd), and the binding dissociation constant (Kd) were analyzed with ProteOn Manager software. The results thereof are shown in FIG. 38, FIG. 39, and Table 1.

Kd: 0.49 nM
koff: 0.0027 s⁻¹
kon: 5.5e+06 M⁻¹ s⁻¹
B1: non-heated disialo sugar chain attached polypeptide (10) (ligand)
chain: MSYNLLGFLQRSSNFQCQKLLWQLNGRLEYCLKDRMNFDIPEEIKQLQQFQKEDAALTIYEMLQNIFAIFRQDSSSTGWNETIVENLLANVYHQINHLKTVLEEKLEKEDFTRGKLMSSLHLKRYYGRILHYLKAKEYSHCAWTIVRVEILRNFYFINRLTGYLRN
modifications: disialo sugar chain on Asn at position 80; folded, with a mass loss of 2 Da after folding (disulfide bond, Cys 31-Cys 141 in interferon β)
notes: also called glycosylated polypeptide (10); disialo IFN-β

Kd: 0.53 nM
koff: 0.0023 s⁻¹
kon: 4.3e+06 M⁻¹ s⁻¹
B2: heat-treated disialo sugar chain attached polypeptide (ligand)
chain: B1 chain
modifications: disialo sugar chain on Asn at position 80; folded as in step 3-6
notes: also called heat-treated chemically synthesized IFN-β
